Measurements from patent US20230287125A1 (LEPU BIOPHARMA, published 2023).

Tests used:
[1] = biological target: PD-L1 on PD-L1 target cells (Homo sapiens (Human)) (UniProt Q9NZQ7); assay: cell-based or functional assay
[2] = biological target: rat PD-L1 protein (rat, UniProt D4AE25 19-239); assay: ELISA, coated rat PD-L1
Description: (§1) ELISA testing was carried out to evaluate the binding of chimeric antibodies to human, mouse, rat, and cynomolgus PD-L1, respectively.
(§2) Briefly, microtiter plates were coated with human, mouse, rat and cynomolgus PD-L1 proteins at 0.5 μg/ml in PBS, 100 μl/well at 4° C. overnight, then blocked with 150 μl/well of 1% BSA. Three-fold dilutions of chimeric antibodies starting from 10 μg/ml were added to each well and incubated for 1 hour at 37° C. The plates were washed with PBS/Tween and then incubate with mouse-anti-human IgG Fab antibody conjugated with Horse Radish Peroxidase (HRP) for 30 mins at 37° C. After washing, the plates were developed with TMB substrate and analyzed by spectrophotometer at OD 450 nm.

[3] = biological target: T1, human PD-L1-his tag protein (human, UniProt Q9NZQ7 19-238); assay: ELISA, coated human PD-L1-His
T1 construct: also called human PD-L1-His protein; recombinant PD-L1 protein; not shown: his tag

[4] = biological target: human TGF-β protein (human) (UniProt P01137); assay: ELISA, coated human TGF-β
[5] = biological target: mouse PD-L1 protein (mouse, UniProt Q9EP73 19-239); assay: ELISA, coated mouse PD-L1
Description: as §1, §2

[6] = biological target: cynomolgus TGF-β protein (cynomolgus); assay: ELISA, coated cynomolgus TGF-β
[7] = biological target: mouse TGF-β protein (mouse); assay: ELISA, coated mouse TGF-β
[8] = biological target: human TGF-β protein (human) (UniProt P01137); assay: cell-based or functional assay
[9] = biological target: cynomolgus PD-L1 protein (cynomolgus, UniProt G7PSE7 19-238); assay: ELISA, coated cynomolgus PD-L1
Description: as §1, §2

[10] = biological target: rat TGF-β protein (rat); assay: ELISA, coated rat TGF-β
[11] = biological target: T2, human PD-L1-Fc protein (human, UniProt Q9NZQ7 19-238); assay: ELISA, antibody titrated on coated human PD-L1-Fc, OD 450nm; upper right panel
T2 construct: coating antigen of the ELISAs; also called rhPD-L1-Fc; not shown: Fc
Description: as §2, with “To evaluate antigen binding activity, the humanized antibodies were subjected to ELISA test. Briefly,” for “Briefly,”, “with human PD-L1-Fc protein” for “with human, mouse, rat and cynomolgus PD-L1 proteins”, “with 200” for “with 150”, “of humanized” for “of chimeric”, “then incubated” for “then incubate”, “for 1 hour” for “for 30 mins”

[12] = biological target: T2, human PD-L1-Fc protein; assay: receptor blocking ELISA: coated human PD-L1-Fc, blocked ligand biotin-labeled human PD-1-Fc (Bio-PD1), OD 450nm; upper right panel
Description: (§3) Briefly, microtiter plates were coated with human PD-L1-Fc protein at 0.5 μg/ml in PBS, 100 μl/well at 4° C. overnight, then blocked with 150 μl/well of 1% BSA at 37° C. for 2 hours. […] The plates were washed with PBS/Tween and then incubated with Streptavidin-HRP for 10 mins at 37° C. After washing, the plates were developed with TMB substrate and analyzed by spectrophotometer at OD 450 nm.

[13] = biological target: T1, human PD-L1-his tag protein; assay: SPR (Biacore T200), mAb captured on Protein A chip, PD-L1-his injected
Description: The binding of the humanized antibodies to recombinant PD-L1 protein (human PD-L1-his tag) was tested by Biacore using a capture method. […] A serial dilution of human PD-L1-his tag protein was injected over captured antibody for 2 mins at a flow rate of 30 μl/min. The antigen was allowed to dissociate for 1500 s. All the experiment were carried out on a Biacore T200.

[14] = biological target: T2, human PD-L1-Fc protein; assay: receptor blocking ELISA: coated human PD-L1-Fc, blocked ligand biotin-labeled human CD80-Fc (Bio-CD80), OD 450nm; upper right panel
Description: as §3

[15] = biological target: T3, human PD-L1 over-expressed on CHOK1 cells (human, UniProt Q9NZQ7 19-290); assay: flow cytometry (MFI) on PDL1-CHOK1 cells; upper left panel
T3 construct: whole, on cells; also called PDL1-CHOK1 cells
Description: (§4) To evaluate the antigen binding property, the humanized antibodies were analyzed for their binding to PD-L1 overexpressed on mammalian cells by FACS. Briefly, PDL1-CHOK1 cells were firstly incubated with 3-fold serious diluted humanized antibodies starting at 15 μg/ml at 4° C. for 40 mins. After washed by PBS, the Alexa Fluor® 647 AffiniPure Goat Anti-Human IgG (H+L) antibody was added to each well and incubated at 4° C. for 30 mins. The MFI of Alexa Fluor® 647 was evaluated by FACSCanto.

[16] = biological target: T2, human PD-L1-Fc protein; assay: ELISA, antibody titrated on coated human PD-L1-Fc, OD 450nm; lower left panel
Description: as §2, with “To evaluate antigen binding activity, the humanized antibodies were subjected to ELISA test. Briefly,” for “Briefly,”, “with human PD-L1-Fc protein” for “with human, mouse, rat and cynomolgus PD-L1 proteins”, “with 200” for “with 150”, “of humanized” for “of chimeric”, “then incubated” for “then incubate”, “for 1 hour” for “for 30 mins”

[17] = biological target: T2, human PD-L1-Fc protein; assay: receptor blocking ELISA: coated human PD-L1-Fc, blocked ligand biotin-labeled human PD-1-Fc (Bio-PD1), OD 450nm; lower left panel
Description: as §3

[18] = biological target: T2, human PD-L1-Fc protein; assay: receptor blocking ELISA: coated human PD-L1-Fc, blocked ligand biotin-labeled human CD80-Fc (Bio-CD80), OD 450nm; lower left panel
Description: as §3

[19] = biological target: T1, human PD-L1-his tag protein; assay: SPR (Biacore), affinity ranking, PDL1-His
[20] = biological target: T3, human PD-L1 over-expressed on CHOK1 …; assay: flow cytometry (MFI) on PDL1-CHOK1 cells; upper right panel
Description: as §4

[21] = biological target: T2, human PD-L1-Fc protein; assay: ELISA, antibody titrated on coated human PD-L1-Fc, OD 450nm; upper left panel
Description: as §2, with “To evaluate antigen binding activity, the humanized antibodies were subjected to ELISA test. Briefly,” for “Briefly,”, “with human PD-L1-Fc protein” for “with human, mouse, rat and cynomolgus PD-L1 proteins”, “with 200” for “with 150”, “of humanized” for “of chimeric”, “then incubated” for “then incubate”, “for 1 hour” for “for 30 mins”

[22] = biological target: T2, human PD-L1-Fc protein; assay: receptor blocking ELISA: coated human PD-L1-Fc, blocked ligand biotin-labeled human CD80-Fc (Bio-CD80), OD 450nm; middle right panel
Description: as §3

[23] = biological target: T2, human PD-L1-Fc protein; assay: receptor blocking ELISA: coated human PD-L1-Fc, blocked ligand biotin-labeled human PD-1-Fc (Bio-PD1), OD 450nm; middle right panel
Description: as §3

[24] = biological target: T3, human PD-L1 over-expressed on CHOK1 …; assay: flow cytometry (MFI) on PDL1-CHOK1 cells; lower right panel
Description: as §4

T1 sequence (Q9NZQ7 19-238 limits assumed): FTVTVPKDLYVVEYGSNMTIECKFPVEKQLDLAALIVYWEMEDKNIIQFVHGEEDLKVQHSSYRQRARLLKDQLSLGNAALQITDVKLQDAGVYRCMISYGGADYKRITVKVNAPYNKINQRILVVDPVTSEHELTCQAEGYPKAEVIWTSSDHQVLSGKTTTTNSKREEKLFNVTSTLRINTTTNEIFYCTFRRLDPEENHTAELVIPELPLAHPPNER
T2 sequence (Q9NZQ7 19-238 limits assumed): as above
T3 sequence (Q9NZQ7 19-290): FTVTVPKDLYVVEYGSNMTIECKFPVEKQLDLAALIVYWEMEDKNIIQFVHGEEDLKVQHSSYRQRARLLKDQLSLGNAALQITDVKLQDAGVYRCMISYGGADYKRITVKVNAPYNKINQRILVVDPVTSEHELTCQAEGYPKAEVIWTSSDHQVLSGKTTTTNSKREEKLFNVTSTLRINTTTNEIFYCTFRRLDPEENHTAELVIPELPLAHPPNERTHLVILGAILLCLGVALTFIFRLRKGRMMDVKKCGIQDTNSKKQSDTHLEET
Sequence of human TGF-β protein (human) (P01137 279-390 limits assumed): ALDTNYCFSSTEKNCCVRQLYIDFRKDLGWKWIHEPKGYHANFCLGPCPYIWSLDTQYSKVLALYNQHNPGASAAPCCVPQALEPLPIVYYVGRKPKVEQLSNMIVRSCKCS
Sequence of PD-L1 on PD-L1 target cells (Homo sapiens (Human)) (Q9NZQ7 19-290 limits assumed): as the sequence (Q9NZQ7 19-290) above
Sequence of mouse PD-L1 protein (Q9EP73 19-239 limits assumed): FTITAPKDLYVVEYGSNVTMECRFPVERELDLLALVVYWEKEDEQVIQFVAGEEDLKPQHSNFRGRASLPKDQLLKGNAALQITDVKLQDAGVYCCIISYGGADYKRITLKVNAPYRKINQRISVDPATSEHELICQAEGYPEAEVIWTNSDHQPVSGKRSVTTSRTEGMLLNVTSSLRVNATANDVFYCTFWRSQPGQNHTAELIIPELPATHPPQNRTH
Sequence of rat PD-L1 protein (D4AE25 entry or part of it limits assumed): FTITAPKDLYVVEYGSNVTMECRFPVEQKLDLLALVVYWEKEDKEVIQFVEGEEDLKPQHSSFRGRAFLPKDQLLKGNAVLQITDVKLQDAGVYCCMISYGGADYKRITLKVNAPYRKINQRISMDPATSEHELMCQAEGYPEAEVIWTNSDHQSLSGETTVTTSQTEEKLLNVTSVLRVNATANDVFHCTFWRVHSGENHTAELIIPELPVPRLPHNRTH
Sequence of cynomolgus TGF-β protein (cynomolgus) (P09533 279-390): as the sequence (P01137 279-390 limits assumed) above
Sequence of rat TGF-β protein (rat) (P17246 279-390): as the sequence (P01137 279-390 limits assumed) above, with A75S counted along it
Sequence of mouse TGF-β protein (mouse) (P04202 279-390): as the sequence (P01137 279-390 limits assumed) above, with A75S counted along it
Sequence of cynomolgus PD-L1 protein (G7PSE7 entry or part of it): as the sequence (Q9NZQ7 19-238 limits assumed) above, with A33T, A34S, S62N, R68Q, Q82R, F173L, T185A, T192I, H215L counted along it

Molecule | EC50 [11] [µg/mL] | IC50 [12] [µg/mL] | Kd [13] [nM] | koff [13] [s⁻¹] | kon [13] [M⁻¹ s⁻¹] | IC50 [14] [µg/mL] | Kd [19] [nM] | koff [19] [s⁻¹] | kon [19] [M⁻¹ s⁻¹] | also measured
MPDL3280A (Atezolizumab), Human IgG1 (N297A)-Fc (antibody) |  |  |  |  |  |  |  |  |  | EC50, NFAT-RE-mediated luminescence, PD1 effector cells co-cultured with PD-L1 target cells [1]: 0.133 nM
M7824 (bintrafusp alfa) |  |  |  |  |  |  |  |  |  | EC50 [2]: 0.0143 µg/mL; EC50 [3]: 0.0237 µg/mL; EC50 [4]: 0.0434 µg/mL; EC50 [5]: 0.0106 µg/mL; EC50 [6]: 0.0397 µg/mL; EC50 [7]: 0.0462 µg/mL; EC50, NFAT-RE-mediated luminescence, PD1 effector cells co-cultured with PD-L1 target cells [1]: 0.85 nM; IC50, TGF-β SBE luciferase reporter assay in 293 cells [8]: 0.0669 nM; EC50 [9]: 0.0256 µg/mL; EC50 [10]: 0.124 µg/mL
Hu47C6A3-2 (antibody, V domains shown, humanized) VH: QVQLQESGPGLVKPSETLSLTCTVSGYSITSDYAWNWIRQPPGKGLEWIGYIIYSGSTSYNPSLKSRVTISRDTSKNQFSLKLSSVTAADTAVYYCARSTMIATNWFAYWGQGTLVTVSS VL: DIQMTQSPSSLSASVGDRVTITCKASQDVSLAVAWYQQKPGKAPKLLIYWASTRHTGVPSRFSGSGSGTDFTLTISSLQPEDFATYYCQQHYITPWTFGGGTKVEIK | 0.0117 | 0.0354 | 0.367 | 0.0009 | 2.45e+06 | 0.165 |  |  |  | EC50 [15]: 0.175 nM
Hu47C6A3-3 (antibody, V domains shown, humanized) VH: QVQLQESGPGLVKPSETLSLTCTVSGYSITSDYAWNWIRQPPGKGLEWMGYIIYSGSTSYNPSLKSRITISRDTSKNQFSLKLSSVTAADTAVYYCARSTMIATNWFAYWGQGTLVTVSS VL: DIQMTQSPSSLSASVGDRVTITCKASQDVSLAVAWYQQKPGKAPKLLIYWASTRHTGVPSRFSGSGSGTDFTLTISSLQPEDFATYYCQQHYITPWTFGGGTKVEIK |  |  | 0.444 | 0.000966 | 2.18e+06 |  |  |  |  | EC50 [16]: 0.015 µg/mL; IC50 [17]: 0.029 µg/mL; IC50 [18]: 0.163 µg/mL; EC50 [15]: 0.188 nM
Hu67F3G7-3 (antibody, V domains shown, humanized) VH: EVQLVQSGAEVKKPGASVKVSCKASGYIFTDFWVSWVRQAPGQGLEWIGEIYPNSGVSRYNEKFKGRVTMTVDKSISTAYMELSRLRSDDTAVYYCTKYFGYTYWFGYWGQGTLVTVSS VL: DIQMTQSPSSLSASVGDRVTITCRASKSVSTYMHWYQQKPGKAPKLLIYSASHLESGVPSRFSGSGSGTDFTLTISSLQPEDFATYYCQQSNELPVTFGGGTKVEIK |  | 0.158 | 0.0371 | 7.74e-05 | 2.09e+06 | 0.495 | 0.0347 | 9.72e-05 | 2.8e+06 | EC50 [20]: 0.167 nM; EC50 [21]: 0.0232 µg/mL
Hu89C10H8-7 (antibody, V domains shown, humanized) VH: EVQLVESGGGLVKPGGSLRLSCAASGFTFSNYWMTWIRQAPGKGLEWVASITNTGSSTFYPDSVKGRFTISRDNAKNSLYLQMNSLRAEDTAVYYCTRDTTIAPFDYWGQGTMVTVSS VL: DIQMTQSPSSLSASVGDRVTITCKASQNLNEYLNWYQQKPGKAPKRLIYKTNTLQAGIPSRFSGSGSGTDYTLTISSLQPEDFATYYCSQYNSGNTFGQGTKLEIK | 0.00705 | 0.114 | 0.0935 | 5.31e-05 | 568000 | 0.285 | 0.107 | 6.61e-05 | 615000 | EC50 [24]: 0.1 nM

Second part, led by results:

EC50 [11] [µg/mL] | IC50 [12] [µg/mL] | Kd [13] [nM] | koff [13] [s⁻¹] | kon [13] [M⁻¹ s⁻¹] | IC50 [14] [µg/mL] | Kd [19] [nM] | koff [19] [s⁻¹] | kon [19] [M⁻¹ s⁻¹] | Molecule | also measured
0.0124 |  | 0.0328 | 7.25e-05 | 2.21e+06 |  | 0.0353 | 9.49e-05 | 2.69e+06 | Hu67F3G7-7 (antibody, V domains shown, humanized) VH: EVQLVQSGAEVKKPGASVKVSCKASGYTFTDFWVSWVRQAPGQGLEWMGEIYPNSGVSRYNEKFKGRVTMTVDKSISTAYMELSRLRSDDTAVYYCTKYFGYTYWFGYWGQGTLVTVSS VL: DTVLTQSPSSLSASVGDRVTITCRASKSVSTYMHWYQQKPGKAPKLLIYSASHLESGVPSRFSGSGSGTDFTLTISSLQPEDFATYYCQQSNELPVTFGGGTKVEIK | IC50 [22]: 0.382 µg/mL; EC50 [20]: 0.11 nM; IC50 [23]: 0.14 µg/mL
0.00878 |  | 0.0983 | 5.54e-05 | 564000 |  | 0.0961 | 6.73e-05 | 700000 | Hu89C10H8-11 (antibody, V domains shown, humanized) VH: EVQLVESGGGLVKPGGSLRLSCAASGFTFSNYWMTWIRQAPGKGLEWVASITNTGSSTFYPDSVKGRFTISRDNAKNSLYLQMNSLRAEDTAVYYCTRDTTIAPFDYWGQGTMVTVSS VL: DIQMTQSPSSLSASVGDRVTITCKASQNLNEYLNWYQQKPGKAPKRLIYKTNTLQAGIPSRFSGSGSGIDYTLTISSLQPEDFATYYCSQYNSGNTFGQGTKLEIK | IC50 [17]: 0.11 µg/mL; IC50 [18]: 0.275 µg/mL; EC50 [24]: 0.151 nM
